Molecular target: T1, EphA3/ephrin-A5 complex (Homo sapiens, UniProt P29320+P52803)
T1 construct: Fc fusion proteins of the ephrin-A5 and EphA3 extracellular domains fused to the hinge and Fc region of human IgG1 were produced as described; expressed in transfected cells; host or cells: EphA3/HEK293 cells; ephrin-A5-Fc added as soluble pre-clustered protein
T1 sequence (P29320 21-983): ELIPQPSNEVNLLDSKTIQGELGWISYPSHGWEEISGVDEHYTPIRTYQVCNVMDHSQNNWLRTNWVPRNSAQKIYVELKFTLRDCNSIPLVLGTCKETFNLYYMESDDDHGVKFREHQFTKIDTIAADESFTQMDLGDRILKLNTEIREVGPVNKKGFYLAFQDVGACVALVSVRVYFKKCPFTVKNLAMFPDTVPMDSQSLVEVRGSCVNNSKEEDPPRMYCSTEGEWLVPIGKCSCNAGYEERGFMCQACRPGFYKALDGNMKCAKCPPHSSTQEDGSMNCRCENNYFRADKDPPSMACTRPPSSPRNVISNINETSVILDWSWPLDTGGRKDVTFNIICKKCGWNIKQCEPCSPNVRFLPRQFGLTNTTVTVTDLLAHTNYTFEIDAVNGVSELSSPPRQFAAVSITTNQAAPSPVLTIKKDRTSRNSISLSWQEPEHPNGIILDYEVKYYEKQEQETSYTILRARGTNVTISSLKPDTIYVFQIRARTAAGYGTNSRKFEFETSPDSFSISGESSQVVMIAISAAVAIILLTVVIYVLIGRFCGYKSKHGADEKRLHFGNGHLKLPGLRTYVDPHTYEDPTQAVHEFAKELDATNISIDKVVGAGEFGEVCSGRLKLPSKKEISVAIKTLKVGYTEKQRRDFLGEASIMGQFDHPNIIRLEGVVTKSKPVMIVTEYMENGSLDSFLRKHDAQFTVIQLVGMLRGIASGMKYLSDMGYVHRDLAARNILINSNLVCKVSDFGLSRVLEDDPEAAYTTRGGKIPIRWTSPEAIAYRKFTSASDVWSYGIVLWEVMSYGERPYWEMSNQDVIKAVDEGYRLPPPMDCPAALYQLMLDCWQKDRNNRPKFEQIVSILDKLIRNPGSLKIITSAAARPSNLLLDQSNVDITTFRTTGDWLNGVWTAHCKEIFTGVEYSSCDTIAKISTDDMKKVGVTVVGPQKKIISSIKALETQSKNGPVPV
T1 sequence (P52803 21-203 limits assumed): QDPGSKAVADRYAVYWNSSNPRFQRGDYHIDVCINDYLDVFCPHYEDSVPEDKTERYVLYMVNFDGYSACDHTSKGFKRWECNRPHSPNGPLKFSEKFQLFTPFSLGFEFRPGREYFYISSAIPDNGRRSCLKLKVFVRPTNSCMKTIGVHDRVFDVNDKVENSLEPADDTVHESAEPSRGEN
Assay: Co-immunoprecipitation from transfected cells treated with pre-clustered ephrin-A5-Fc
Format: cell-based
Conditions: EphA3/293 cells, pre-clustered ephrin-A5-Fc 10 min
Experimental: FIG. 4. Mutation of acidic residues in the ADAM10 Cys-rich domain affects binding to EphA3/ephrin-A5 and cleavage of ephrin-A5. • A. In vitro binding of mutant ADAM10D+C to EphA3/ephrin-A5. ADAM10D+C[EEE-A] containing Alanine substitutions of Glu573, Glu578, Glu579 (lanes 1-4) or ADAM10D+C[RDD-A] (Ala substitutions of Arg525, Asp526, Asp527, lanes 5-8) were incubated alone (lanes 1, 5), or together with EphA3-Fc (lanes 2, 6), ephrin-A5-Fc (lanes 3, 7), or EphA3-Fc and ephrin-A5 (lanes 4, 8). Complexed proteins were extracted with Protein-A-Sepharose beads and analysed as in FIG. 2. • B. Binding of wild-type and mutant ADAM10ΔMP to EphA3 in cells. EphA3/293 cells were transfected with HA-ADAM10ΔMP or HA-ADAM10ΔMP [EEE-A]. Parental and transfected cells were treated for 10 min with or without pre-clustered ephrin-A5-Fc and lysed. Anti-HA and anti-EphA3 immunoprecipitates, and total cell lysates were analysed by Western blotting with indicated antibodies. • C. Ephrin-A5-Fc cleavage in cells expressing wt and 3A mutant ADAM10. EphA3/293 cells were transfected with full length, wild-type (wt) ADAM10, dominant-negative ADAM10ΔMP, or ADAM10 bearing alanine (3A) or 3 lysine (3K) substitutions of Glu573, 578, 579. Following exposure to clustered (+) or non-clustered ? ephrin-A5 Fc, cleaved ephrin was recovered and analysed by Western Blot as described in FIG. 1c. […]

interaction with the EphA3/ephrin-A5 complex in cells: significantly inhibited
B1: ADAM10Δpro: cell-surface ADAM10Δpro incorporating the EEE-A amino acid substitutions (protein)
chain: SGQPICGNGMVEQGEECDCGYSDQCKDDCCFDANQPEGKKCKLKPGKQCSPSQGPCCTAQCAFKSKSEKCRDDSDCAKEGICNGFTALCPASDPKPNFTDCNRHTQVCINGQCAGSICAKYDLAACTCASSDGKDDKELCHVCCMKKMAPSTCASTGSLQWSKQFSGRTITLQPGSPCNDFRGYCDVFMRCRLVDADGPLARLKKAIFSPQLYENIAEWIVAHWWAVLLMGIALIMLMAGFIKICSVHTPSSNPKLPPPKPLPGTLKRRRPPQPIQQPPRQRPRESYQMGHMRR
modifications: left off: small tags and cut ends
notes: cell-surface ADAM10Δpro incorporating the EEE-A amino acid substitutions

— patent publication US7960513B2, “Antibody against a human ADAM protease” (Monash University, priority 2004, dated 2011)
